Measured values as given in patent US20230051266A1 (ABL BIO, published 2023).
Numbering of substitutions follows the chain as printed. In names and notes the source's numbering stands.

Columns and labels:
[1] = biological target: T1, human 4-1BB on GloResponse NFkB-luc2/4-1BB Jurkat cells (human, UniProt Q07011 24-255); assay: cell-based or functional assay
[2] = biological target: T1, human 4-1BB on GloResponse …; assay: cell-based or functional assay; remark: listed apart in the source
[3] = biological target: T2, human BCMA on cells (CHOK1-hBCMA; H929 endogenous BCMA) (human, UniProt Q02223 1-184); assay: FACS, 100 nM antibody, H929 cells
T2 construct: Cell-surface BCMA in FACS; also called mammalian expressed BCMA; native antigen
T2 sequence: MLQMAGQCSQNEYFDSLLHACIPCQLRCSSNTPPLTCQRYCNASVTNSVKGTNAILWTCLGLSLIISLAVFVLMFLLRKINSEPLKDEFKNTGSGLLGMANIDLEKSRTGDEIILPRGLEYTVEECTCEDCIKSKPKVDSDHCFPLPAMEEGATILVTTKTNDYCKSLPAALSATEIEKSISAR
Protocol: (§1) To evaluate the antigen binding property, the antibody candidates were analyzed for their bindings to BCMA expressed cells by FACS. Briefly, CHOK1 expressing human BCMA (CHOK1-hBCMA) or H929 expressing endogenous BCMA cells were treated with the 100 nM of indicated antibodies at 4° C. for 1 hr. CHOK1 cells were used for BCMA-negative control. After washing by FACS buffer (1% (w/v) BSA in PBS), cells were incubated with the FTTC-anti-human IgG antibody at 4° C. for 1 hr and then subjected to FACS analysis. As shown in FIGS. 2d-2f, the anti-BCMAx4-1BB antibodies bind to BCMA expressed CHOK1-hBCMA and H929 cell lines but not BCMA negative CHOK1.

[4] = biological target: T2, human BCMA on cells (CHOK1-hBCMA; H929 …); assay: FACS, 100 nM antibody, CHOK1-hBCMA cells
Protocol: as §1

[5] = biological target: T1, human 4-1BB on GloResponse …; assay: cell-based or functional assay; remark: listed apart in the source
human BCMA-Fc protein = biological target: T3, human BCMA-Fc protein (human, UniProt Q02223 1-54); assay: DACE (dual antigen captured ELISA): plate coated with human BCMA-Fc, bispecific antibody titrated, then human 4-1BB-His; Abs at 450 nm
T3 construct: Coated antigen of the DACE
T3 sequence: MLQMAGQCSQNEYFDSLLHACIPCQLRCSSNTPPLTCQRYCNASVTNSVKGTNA

Recombinant Human BCMA = biological target: T4, Recombinant Human BCMA (human, UniProt Q02223 1-54); assay: SPR, bispecific antibody on Protein A chip, antigen flowed
T4 construct: also called hBCMA; recombinant BCMA
T4 sequence: T3 sequence
Protocol: In the SPR experiment, the anti-BCMA/anti-4-1BB bispecific antibodies obtained in Example 3-5 were individually captured on flow-cells 2, 3 and 4, keeping the flow-cell 1 as reference, on a Protein A Chip on which an anti-BCMA/anti-4-1BB Bispecific antibody (5D5M4(NA)×41B01 M12 or 5A6M6(NA)×41B01 M12) had been immobilized by amine coupling. Recombinant Human BCMA or Human 4-1BB protein was flowed across the chip at concentration range from 100 nM to 6.25 nM for human BCMA or 250 nM to 15.625 nM for human 4-1BB and 0.78 nM at […] for 300 seconds, followed by a dissociation phase of 400 seconds. Regeneration was performed with 10 mM Glycine-HCl (pH 2.0).

[6] = biological target: T5, Recombinant Human 4-1BB protein (human, UniProt Q07011 24-186); assay: BLI, Octet Red 96
T5 construct: also called h4-1BB; 4-1BB antigen
Text: To explore the binding kinetics of the humanized antibody, this example performed the affinity ranking by using Octet Red 96.

T1 sequence (Q07011 24-255): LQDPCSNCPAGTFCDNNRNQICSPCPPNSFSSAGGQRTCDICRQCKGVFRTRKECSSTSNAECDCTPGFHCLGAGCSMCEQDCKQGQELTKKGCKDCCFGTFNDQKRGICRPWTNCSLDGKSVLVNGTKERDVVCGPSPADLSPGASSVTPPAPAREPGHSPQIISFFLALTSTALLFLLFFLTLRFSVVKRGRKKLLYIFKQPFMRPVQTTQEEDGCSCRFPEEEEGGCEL

B1: 5B5(NA)x41B02 (bispecific antibody, human IgG1, kappa, N297A)
heavy: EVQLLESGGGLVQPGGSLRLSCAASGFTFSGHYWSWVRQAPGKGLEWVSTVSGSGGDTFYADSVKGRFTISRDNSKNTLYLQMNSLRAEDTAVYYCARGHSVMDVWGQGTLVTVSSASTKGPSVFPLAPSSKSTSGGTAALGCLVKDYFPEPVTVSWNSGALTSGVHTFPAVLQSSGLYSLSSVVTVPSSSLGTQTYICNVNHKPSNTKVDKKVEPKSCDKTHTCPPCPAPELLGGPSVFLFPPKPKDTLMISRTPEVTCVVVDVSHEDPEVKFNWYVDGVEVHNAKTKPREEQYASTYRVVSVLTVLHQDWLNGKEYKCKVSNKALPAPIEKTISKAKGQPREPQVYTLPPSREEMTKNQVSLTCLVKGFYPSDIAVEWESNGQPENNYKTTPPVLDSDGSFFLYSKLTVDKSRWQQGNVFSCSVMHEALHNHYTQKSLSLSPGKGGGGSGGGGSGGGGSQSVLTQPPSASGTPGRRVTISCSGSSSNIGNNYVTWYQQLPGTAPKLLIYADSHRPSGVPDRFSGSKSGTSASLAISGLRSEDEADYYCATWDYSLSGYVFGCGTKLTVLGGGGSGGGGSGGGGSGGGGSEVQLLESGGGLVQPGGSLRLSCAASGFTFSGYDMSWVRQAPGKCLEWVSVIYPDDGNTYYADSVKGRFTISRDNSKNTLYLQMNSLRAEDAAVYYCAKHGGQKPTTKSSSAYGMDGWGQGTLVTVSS
light: EIVLTQSPGTLSLSPGERATLSCRASQGIDSYVAWYQQKPGQAPRLLIYDASLRATGIPDRFSGSGSGTDFTLTISRLEPEDFAVYYCQQYNSWPITFGQGTKLEIKRTVAAPSVFIFPPSDEQLKSGTASVVCLLNNFYPREAKVQWKVDNALQSGNSQESVTEQDSKDSTYSLSSTLTLSKADYEKHKVYACEVTHQGLSSPVTKSFNRGEC
notes: IgG1 N297A-scFv (VL-(G4S)4-VH); also called 5B5(NA) x41B02 (1A12)
In the case of B1, the “4-1BB reporter bioassay (NFkB-luc2/4-1BB Jurkat) with CHOK1-hBCMA cells, EC50” value [1] is reported as 0.003 nM, the “4-1BB reporter bioassay (NFkB-luc2/4-1BB Jurkat) with H929 cells, EC50” value (“4-1BB reporter bioassay … with H929 cells, EC50” below) [2] is reported as 12.1 nM and the “quantified FACS signal (name not given)” value [3] is reported as 14.9. For the same binder, the “quantified FACS signal (name not given)” value [4] was 484.

B2: 5D5(NA)x41B01 M12 (bispecific antibody, human IgG1, kappa, N297A)
heavy: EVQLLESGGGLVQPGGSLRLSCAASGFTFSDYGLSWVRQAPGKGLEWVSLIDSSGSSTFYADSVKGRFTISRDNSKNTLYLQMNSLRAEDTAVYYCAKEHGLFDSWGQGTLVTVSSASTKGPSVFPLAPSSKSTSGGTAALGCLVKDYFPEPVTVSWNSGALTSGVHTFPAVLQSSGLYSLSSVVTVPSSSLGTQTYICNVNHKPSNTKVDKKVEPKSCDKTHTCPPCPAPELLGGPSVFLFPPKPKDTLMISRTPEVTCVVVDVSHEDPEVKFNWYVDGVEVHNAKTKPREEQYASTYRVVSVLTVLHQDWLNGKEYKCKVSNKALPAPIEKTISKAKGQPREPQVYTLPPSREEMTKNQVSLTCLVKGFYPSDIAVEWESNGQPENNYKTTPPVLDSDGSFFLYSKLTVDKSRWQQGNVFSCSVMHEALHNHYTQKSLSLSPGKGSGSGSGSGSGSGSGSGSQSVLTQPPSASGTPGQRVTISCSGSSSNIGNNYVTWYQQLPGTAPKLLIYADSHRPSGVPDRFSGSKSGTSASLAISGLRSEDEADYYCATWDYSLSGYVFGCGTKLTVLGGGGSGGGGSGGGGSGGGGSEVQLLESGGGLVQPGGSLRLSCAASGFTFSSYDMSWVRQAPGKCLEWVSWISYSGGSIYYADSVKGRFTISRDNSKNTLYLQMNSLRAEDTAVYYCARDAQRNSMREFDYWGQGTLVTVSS
light: B1 light with R24K, G28D, S31D, Y32D, V33I, A34N, Y91S, N92L, S93R, W94T
notes: also called 5D5(NA)x41B01 M12:WT; 5D5WT(NA)x41B01 M12
B2 was tested, and the “In vitro 4-1BB activation (reporter bioassay) with H929 cells, EC50” value [5] was 0.629 nM, the “In vitro 4-1BB activation (reporter bioassay) with MM1S cells, EC50” value [5] was 2.66 nM and the “EC50 (read off the curve)” value (human BCMA-Fc protein) was ~0.5 nM.

B3: 5B5(NA)xAB41 (bispecific antibody, human IgG1, kappa, N297A)
heavy: not shown
light: B1 light
notes: IgG1 N297A-scFv (VL-(G4S)4-VH)
B3 was tested, and the “4-1BB reporter bioassay (NFkB-luc2/4-1BB Jurkat) with CHOK1-hBCMA cells, EC50” value [1] was 0.0741 nM, the “quantified FACS signal (name not given)” value [3] was 14.1 and the “quantified FACS signal (name not given)” value [4] was 477.

B4: 5B5(NA)x41B01 (bispecific antibody, human IgG1, kappa, N297A)
heavy: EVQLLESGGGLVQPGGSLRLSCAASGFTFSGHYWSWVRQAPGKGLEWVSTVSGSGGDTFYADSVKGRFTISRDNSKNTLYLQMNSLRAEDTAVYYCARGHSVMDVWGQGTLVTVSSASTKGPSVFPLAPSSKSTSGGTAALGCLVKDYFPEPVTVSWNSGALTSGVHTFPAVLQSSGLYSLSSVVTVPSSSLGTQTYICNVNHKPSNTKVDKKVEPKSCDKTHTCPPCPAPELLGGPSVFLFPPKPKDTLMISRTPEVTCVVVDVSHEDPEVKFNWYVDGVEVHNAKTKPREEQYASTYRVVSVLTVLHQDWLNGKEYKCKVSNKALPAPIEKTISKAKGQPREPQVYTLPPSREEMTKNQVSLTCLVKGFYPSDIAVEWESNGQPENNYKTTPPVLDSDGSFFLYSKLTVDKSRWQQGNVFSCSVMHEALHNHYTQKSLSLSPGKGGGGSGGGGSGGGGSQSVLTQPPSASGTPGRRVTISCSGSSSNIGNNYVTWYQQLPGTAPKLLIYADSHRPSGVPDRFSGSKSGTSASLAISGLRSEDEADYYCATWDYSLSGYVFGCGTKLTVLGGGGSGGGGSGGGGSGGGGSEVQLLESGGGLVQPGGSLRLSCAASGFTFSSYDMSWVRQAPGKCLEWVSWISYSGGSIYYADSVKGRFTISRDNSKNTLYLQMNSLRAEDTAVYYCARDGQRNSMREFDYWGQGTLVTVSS
light: B1 light
notes: IgG1 N297A-scFv; also called 5B5(NA) x41B01 (1A10)
In the case of B4, the “4-1BB reporter bioassay (NFkB-luc2/4-1BB Jurkat) with CHOK1-hBCMA cells, EC50” value [1] is reported as 0.0316 nM, the “4-1BB reporter bioassay … with H929 cells, EC50” value [2] is reported as 5.76 nM and the “quantified FACS signal (name not given)” value [3] is reported as 17.6. For the same binder, the “quantified FACS signal (name not given)” value [4] was 493.

B5: 5D5(NA)xAB41 (bispecific antibody, human IgG1, kappa, N297A)
heavy: not shown
light: B1 light with R24K, G28D, S31D, Y32D, V33I, A34N, Y91S, N92L, S93R, W94T
notes: as for B3
With B5 the “4-1BB reporter bioassay (NFkB-luc2/4-1BB Jurkat) with CHOK1-hBCMA cells, EC50” value [1] was 0.0426 nM, the “quantified FACS signal (name not given)” value [3] was 19.7 and the “quantified FACS signal (name not given)” value [4] was 585.

B6: 5D5(NA)x41B01 (bispecific antibody, human IgG1, kappa, N297A)
heavy: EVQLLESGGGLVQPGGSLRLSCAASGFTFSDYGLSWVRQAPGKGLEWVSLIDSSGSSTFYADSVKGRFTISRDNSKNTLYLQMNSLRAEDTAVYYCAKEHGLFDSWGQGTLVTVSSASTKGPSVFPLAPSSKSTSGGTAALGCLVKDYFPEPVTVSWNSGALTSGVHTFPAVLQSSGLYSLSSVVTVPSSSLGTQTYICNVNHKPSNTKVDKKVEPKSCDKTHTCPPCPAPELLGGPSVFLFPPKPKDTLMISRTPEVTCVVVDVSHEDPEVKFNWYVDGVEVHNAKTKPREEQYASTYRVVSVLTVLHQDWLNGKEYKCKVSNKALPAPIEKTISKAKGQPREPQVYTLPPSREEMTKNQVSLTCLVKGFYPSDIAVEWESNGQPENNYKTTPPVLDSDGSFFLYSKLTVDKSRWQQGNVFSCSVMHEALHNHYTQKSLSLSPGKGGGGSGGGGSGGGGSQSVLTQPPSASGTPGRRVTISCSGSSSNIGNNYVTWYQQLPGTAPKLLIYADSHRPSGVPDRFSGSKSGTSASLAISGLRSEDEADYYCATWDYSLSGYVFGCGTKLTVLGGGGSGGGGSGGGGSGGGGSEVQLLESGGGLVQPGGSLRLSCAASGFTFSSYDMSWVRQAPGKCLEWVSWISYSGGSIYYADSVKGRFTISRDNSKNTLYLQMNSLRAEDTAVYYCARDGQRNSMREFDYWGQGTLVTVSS
light: B1 light with R24K, G28D, S31D, Y32D, V33I, A34N, Y91S, N92L, S93R, W94T
notes: IgG1 N297A-scFv; also called 5D5(NA) x41B01 (1A10)
With B6 the “4-1BB reporter bioassay (NFkB-luc2/4-1BB Jurkat) with CHOK1-hBCMA cells, EC50” value [1] was 0.0691 nM, the “4-1BB reporter bioassay … with H929 cells, EC50” value [2] was 5.35 nM and the “quantified FACS signal (name not given)” value [3] was 17.9. The “quantified FACS signal (name not given)” value [4] was 579.

B7: 5D5(NA)x41B02 (bispecific antibody, human IgG1, kappa, N297A)
heavy: not shown
light: B1 light with R24K, G28D, S31D, Y32D, V33I, A34N, Y91S, N92L, S93R, W94T
notes: IgG1 N297A-scFv (VL-(G4S)4-VH); also called 5D5(NA) x41B02 (1A12)
With B7 the “4-1BB reporter bioassay (NFkB-luc2/4-1BB Jurkat) with CHOK1-hBCMA cells, EC50” value [1] was 0.0314 nM, the “4-1BB reporter bioassay … with H929 cells, EC50” value [2] was 10.9 nM and the “quantified FACS signal (name not given)” value [3] was 20.2. The “quantified FACS signal (name not given)” value [4] was 602.

B8: 5D5M4(NA)x41B01 M12 (bispecific antibody, human IgG1, kappa, N297A)
heavy: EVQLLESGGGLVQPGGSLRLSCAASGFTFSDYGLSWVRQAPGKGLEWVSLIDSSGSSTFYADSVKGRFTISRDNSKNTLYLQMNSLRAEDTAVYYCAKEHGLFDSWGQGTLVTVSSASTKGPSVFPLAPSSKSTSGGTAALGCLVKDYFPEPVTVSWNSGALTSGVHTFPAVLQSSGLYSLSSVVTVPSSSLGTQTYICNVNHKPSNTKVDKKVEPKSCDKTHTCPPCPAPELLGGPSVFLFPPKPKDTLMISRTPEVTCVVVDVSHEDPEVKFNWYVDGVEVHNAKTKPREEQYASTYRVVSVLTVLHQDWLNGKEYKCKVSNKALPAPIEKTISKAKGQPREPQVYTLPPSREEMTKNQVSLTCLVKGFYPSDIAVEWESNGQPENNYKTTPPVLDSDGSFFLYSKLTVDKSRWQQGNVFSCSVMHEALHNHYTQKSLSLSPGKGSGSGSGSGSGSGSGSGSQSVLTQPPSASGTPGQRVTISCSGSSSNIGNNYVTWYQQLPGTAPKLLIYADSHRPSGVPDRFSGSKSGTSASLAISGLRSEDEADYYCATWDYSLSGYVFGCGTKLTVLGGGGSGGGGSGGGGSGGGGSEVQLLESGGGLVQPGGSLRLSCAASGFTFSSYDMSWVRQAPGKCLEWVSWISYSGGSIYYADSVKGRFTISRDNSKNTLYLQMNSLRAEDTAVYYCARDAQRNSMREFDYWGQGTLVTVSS
light: B1 light with R24K, G28D, S31D, Y32A, V33I, A34N, Y91S, N92L, S93R, W94T
notes: IgG1 N297A-(GS)9-scFv
For B8, the “In vitro 4-1BB activation (reporter bioassay) with H929 cells, EC50” value [5] was 0.377 nM, the “In vitro 4-1BB activation (reporter bioassay) with MM1S cells, EC50” value [5] was 2.41 nM and the Kd (Recombinant Human BCMA) was 16 nM. For the same binder, the koff (Recombinant Human BCMA) was 0.065 s⁻¹, the kon (Recombinant Human BCMA) was 4.07e+06 M⁻¹ s⁻¹ and the “EC50 (read off the curve)” value (human BCMA-Fc protein) was ~0.4 nM.

B9: 5A6(NA)xAB41 (bispecific antibody, human IgG1, lambda, N297A)
heavy: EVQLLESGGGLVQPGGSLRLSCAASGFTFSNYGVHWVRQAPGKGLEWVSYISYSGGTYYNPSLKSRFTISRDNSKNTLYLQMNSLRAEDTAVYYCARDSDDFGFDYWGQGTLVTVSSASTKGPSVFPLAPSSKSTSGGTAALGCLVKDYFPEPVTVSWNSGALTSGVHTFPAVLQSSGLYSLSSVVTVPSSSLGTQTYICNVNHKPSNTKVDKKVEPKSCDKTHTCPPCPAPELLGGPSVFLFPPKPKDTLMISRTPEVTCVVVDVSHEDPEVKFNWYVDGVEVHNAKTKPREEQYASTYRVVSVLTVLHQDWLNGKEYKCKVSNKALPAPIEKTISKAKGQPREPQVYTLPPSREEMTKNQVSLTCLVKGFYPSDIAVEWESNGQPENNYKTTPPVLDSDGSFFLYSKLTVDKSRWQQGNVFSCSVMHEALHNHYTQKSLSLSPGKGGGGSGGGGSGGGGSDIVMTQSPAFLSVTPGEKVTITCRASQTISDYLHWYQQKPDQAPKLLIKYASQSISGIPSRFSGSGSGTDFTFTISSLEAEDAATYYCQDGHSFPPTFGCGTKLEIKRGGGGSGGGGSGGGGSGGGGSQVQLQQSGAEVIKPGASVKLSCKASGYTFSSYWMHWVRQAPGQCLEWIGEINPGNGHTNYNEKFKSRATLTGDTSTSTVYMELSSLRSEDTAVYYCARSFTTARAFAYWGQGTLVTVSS
light: QSVLTQPPSASGTPGQRVTISCQGDSLRSYYVNWYQQLPGTAPKLLIYDHSKRPTGVPDRFSGSKSGTSASLAISGLRSEDEADYYCQSYDSSTVVFGGGTKLTVLGQPKAAPSVTLFPPSSEELQANKATLVCLISDFYPGAVTVAWKADSSPVKAGVETTTPSKQSNNKYAASSYLSLTPEQWKSHRSYSCQVTHEGSTVEKTVAPAECS
notes: as for B3
B9 was tested, and the “4-1BB reporter bioassay (NFkB-luc2/4-1BB Jurkat) with CHOK1-hBCMA cells, EC50” value [1] was 0.0397 nM, the “quantified FACS signal (name not given)” value [3] was 39.9 and the “quantified FACS signal (name not given)” value [4] was 636.

B10: 5A6(NA)x41B01 M12 (bispecific antibody, human IgG1, lambda, N297A)
heavy: not shown
light: B9 light
notes: also called 5A6(NA)x41B01 M12:WT; 5A6WT(NA)x41B01 M12
In the case of B10, the “In vitro 4-1BB activation (reporter bioassay) with H929 cells, EC50” value [5] is reported as 0.459 nM, the “In vitro 4-1BB activation (reporter bioassay) with MM1S cells, EC50” value [5] is reported as 2.26 nM and the “EC50 (read off the curve)” value (human BCMA-Fc protein) is reported as ~0.5 nM.

B11: 5A6(NA)x41B01 (bispecific antibody, human IgG1, lambda, N297A)
heavy: not shown
light: B9 light
notes: IgG1 N297A-scFv; also called 5A6(NA) x41B01 (1A10)
B11 was tested, and the “4-1BB reporter bioassay (NFkB-luc2/4-1BB Jurkat) with CHOK1-hBCMA cells, EC50” value [1] was 0.0616 nM, the “4-1BB reporter bioassay … with H929 cells, EC50” value [2] was 3.16 nM and the “quantified FACS signal (name not given)” value [3] was 43.8. The “quantified FACS signal (name not given)” value [4] was 652.

B12: 5A6(NA)x41B02 (bispecific antibody, human IgG1, lambda, N297A)
heavy: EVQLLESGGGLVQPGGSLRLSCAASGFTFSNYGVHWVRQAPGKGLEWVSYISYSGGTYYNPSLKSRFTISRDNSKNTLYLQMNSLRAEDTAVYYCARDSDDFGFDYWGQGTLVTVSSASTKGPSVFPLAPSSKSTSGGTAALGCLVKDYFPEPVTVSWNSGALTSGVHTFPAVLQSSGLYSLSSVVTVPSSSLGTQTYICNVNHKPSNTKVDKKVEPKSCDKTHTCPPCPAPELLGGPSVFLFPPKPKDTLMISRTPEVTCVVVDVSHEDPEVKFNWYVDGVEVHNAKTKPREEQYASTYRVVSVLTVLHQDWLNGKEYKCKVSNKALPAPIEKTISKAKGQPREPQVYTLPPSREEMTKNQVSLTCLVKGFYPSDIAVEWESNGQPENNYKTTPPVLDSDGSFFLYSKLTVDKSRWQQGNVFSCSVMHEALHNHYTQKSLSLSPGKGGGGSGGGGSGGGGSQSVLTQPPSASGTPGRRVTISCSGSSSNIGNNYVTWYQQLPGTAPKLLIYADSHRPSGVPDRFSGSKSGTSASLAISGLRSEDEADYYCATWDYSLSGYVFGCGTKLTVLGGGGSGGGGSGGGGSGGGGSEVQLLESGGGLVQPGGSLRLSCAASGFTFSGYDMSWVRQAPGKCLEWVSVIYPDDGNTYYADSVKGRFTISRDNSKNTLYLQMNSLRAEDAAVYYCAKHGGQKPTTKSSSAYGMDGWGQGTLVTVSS
light: B9 light
notes: IgG1 N297A-scFv (VL-(G4S)4-VH); also called 5A6(NA) x41B02 (1A12)
For B12, the “4-1BB reporter bioassay (NFkB-luc2/4-1BB Jurkat) with CHOK1-hBCMA cells, EC50” value [1] was 0.0413 nM, the “4-1BB reporter bioassay … with H929 cells, EC50” value [2] was 14.3 nM and the “quantified FACS signal (name not given)” value [3] was 40.3. The “quantified FACS signal (name not given)” value [4] was 646.

B13: 5A6M6(NA)x41B01 M12 (bispecific antibody, human IgG1, lambda, N297A)
heavy: not shown
light: B9 light with D25E, S92A
notes: IgG1 N297A-(GS)9-scFv
B13 was tested, and the “In vitro 4-1BB activation (reporter bioassay) with H929 cells, EC50” value [5] was 0.165 nM, the “In vitro 4-1BB activation (reporter bioassay) with MM1S cells, EC50” value [5] was 1.98 nM and the Kd (Recombinant Human BCMA) was 22.6 nM. For the same binder, the koff (Recombinant Human BCMA) was 0.0119 s⁻¹, the kon (Recombinant Human BCMA) was 527000 M⁻¹ s⁻¹ and the “EC50 (read off the curve)” value (human BCMA-Fc protein) was ~0.3 nM.

B14: 41B01 (anti-4-1BB monoclonal antibody) (antibody, V domains shown)
VH: EVQLLESGGGLVQPGGSLRLSCAASGFTFSSYDMSWVRQAPGKGLEWVSWISYSGGSIYYADSVKGRFTISRDNSKNTLYLQMNSLRAEDTAVYYCARDGQRNSMREFDYWGQGTLVTVSS
VL: QSVLTQPPSASGTPGRRVTISCSGSSSNIGNNYVTWYQQLPGTAPKLLIYADSHRPSGVPDRFSGSKSGTSASLAISGLRSEDEADYYCATWDYSLSGYVFGGGTKLTVL
notes: Tested as a human IgG type antibody (detected with anti-human IgG); also called 1A10
For B14, the Kd [6] was 0.18 nM, the koff [6] was 0.000119 s⁻¹ and the kon [6] was 658000 M⁻¹ s⁻¹.

B15: 41B02 (anti-4-1BB monoclonal antibody) (antibody, V domains shown)
VH: EVQLLESGGGLVQPGGSLRLSCAASGFTFSGYDMSWVRQAPGKGLEWVSVIYPDDGNTYYADSVKGRFTISRDNSKNTLYLQMNSLRAEDAAVYYCAKHGGQKPTTKSSSAYGMDGWGQGTLVTVSS
VL: B14 VL
notes: Tested as a human IgG type antibody; also called 1A12
With B15 the Kd [6] was 1.01 nM, the koff [6] was 0.000603 s⁻¹ and the kon [6] was 595000 M⁻¹ s⁻¹.
